Data reported in patent US20210246166A1 (Bayer, published 2021).
Numbered stars: 1 amine (or outer) side, 2 acyl side, 3 side chain; on linkers, the order of the positions; unused ones are H or OH. Bridge positions count the residues as written; N and C are the ends. Square brackets hold non-standard residues; d marks the D form. Ends that are not written are not given here. (S)‑4‑Piperazine‑2‑carboxylic acid = (S)-4-piperazine-2-carboxylic acid; 4‑Aminomethylphenylacetic acid = O=C(Cc1ccc(CN[*:1])cc1)[*:2]; NHCH2(1,3-C6H4)CH2CO = O=C(Cc1cccc(CN[*:1])c1)[*:2]; Phe(3-COOH) = N[C@@H](Cc1cccc(C(=O)O)c1)C(=O)O; Oic = O=C(O)[C@@H]1C[C@@H]2CCCC[C@@H]2N1; PEG6 = NCCOCCOCCOCCOCCOCCOCCC(=O)O; tBuAla = CC(C)(C)C[C@H](N)C(=O)O; PEG4 = NCCOCCOCCOCCOCCC(=O)O; Pen = CC(C)(S)[C@H](N)C(=O)O; PEG3 = NCCOCCOCCOCCC(=O)O; Orn = NCCC[C@H](N)C(=O)O; dβPro = D-beta-Proline; Sar = CNCC(=O)O

T1: recombinant rat MASP1 active protease (amino acids 302-704, C-terminal His Tag) (rat, UniProt Q8CHN8 302-704)
T1 sequence: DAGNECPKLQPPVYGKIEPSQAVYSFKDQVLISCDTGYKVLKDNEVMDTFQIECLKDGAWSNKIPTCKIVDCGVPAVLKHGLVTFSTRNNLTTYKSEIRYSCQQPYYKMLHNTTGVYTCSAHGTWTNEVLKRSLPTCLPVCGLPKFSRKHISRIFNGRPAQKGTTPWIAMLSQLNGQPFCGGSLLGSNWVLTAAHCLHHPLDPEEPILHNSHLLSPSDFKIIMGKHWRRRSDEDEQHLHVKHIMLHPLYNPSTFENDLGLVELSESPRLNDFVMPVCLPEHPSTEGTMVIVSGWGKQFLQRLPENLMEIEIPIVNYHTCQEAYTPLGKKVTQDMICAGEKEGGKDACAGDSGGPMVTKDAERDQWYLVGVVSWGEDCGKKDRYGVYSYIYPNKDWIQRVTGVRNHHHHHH


What was measured:
[1] = molecular target: T1, recombinant rat MASP1 active protease …; experiment: cell-based or functional assay
[2] = molecular target: recombinant rat MASP2 active protease (amino acids 296-685, C-terminal His Tag) (rat, UniProt Q9JJS8 296-685); experiment: cell-based or functional assay
Chain of recombinant rat MASP2 active protease (amino acids 296-685, C-terminal His Tag) (Q9JJS8 other isoform, or with tags, fused parts or gaps limits assumed): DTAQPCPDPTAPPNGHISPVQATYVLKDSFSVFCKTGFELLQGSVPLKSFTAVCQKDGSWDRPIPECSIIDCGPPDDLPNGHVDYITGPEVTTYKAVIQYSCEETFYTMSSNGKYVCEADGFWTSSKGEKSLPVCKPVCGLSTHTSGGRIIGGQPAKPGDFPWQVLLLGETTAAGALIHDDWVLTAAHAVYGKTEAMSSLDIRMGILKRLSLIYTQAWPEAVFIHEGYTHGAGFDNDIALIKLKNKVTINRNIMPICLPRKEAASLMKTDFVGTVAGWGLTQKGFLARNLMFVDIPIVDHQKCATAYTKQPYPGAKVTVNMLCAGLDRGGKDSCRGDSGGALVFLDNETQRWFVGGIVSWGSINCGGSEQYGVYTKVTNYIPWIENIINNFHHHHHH

Binder | rat MASP1 IC50 [1] [nM] | rat MASP2 IC50 [2] [nM]
[Sar]ICSRS[tBuAla]PPI[Pen]IP[Orn]D-OH (disulfide 3-11; N-terminus assumed; SMILES CC[C@H](C)[C@H](NC(=O)CNC)C(=O)N[C@H]1CSSC(C)(C)[C@@H](C(=O)N[C@H](C(=O)N2CCC[C@H]2C(=O)N[C@@H](CCCN)C(=O)N[C@@H](CC(=O)O)C(=O)O)[C@@H](C)CC)NC(=O)[C@H]([C@@H](C)CC)NC(=O)[C@@H]2CCCN2C(=O)[C@@H]2CCCN2C(=O)[C@H](CC(C)(C)C)NC(=O)[C@H](CO)NC(=O)[C@H](CCCNC(=N)N)NC(=O)[C@H](CO)NC1=O) [Example 486: ((N-Me)G)-IC+SRS-((tBu)A)-PPI-(Pen)+IP-(Orn)-D-OH] | 69 | 68
[dβPro]ICSRS[tBuAla]PPI[Pen]IPD-OH (disulfide 3-11) [Example 481: (beta-p)-IC+SRS-((tBu)A)-PPI-(Pen)+IPD-OH] | 20 | 36
[Sar]ICSRS[tBuAla]PPI[Pen]IP[PEG4]-OH (disulfide 3-11; N-terminus assumed; SMILES CC[C@H](C)[C@H](NC(=O)CNC)C(=O)N[C@H]1CSSC(C)(C)[C@@H](C(=O)N[C@H](C(=O)N2CCC[C@H]2C(=O)NCCOCCOCCOCCOCCC(=O)O)[C@@H](C)CC)NC(=O)[C@H]([C@@H](C)CC)NC(=O)[C@@H]2CCCN2C(=O)[C@@H]2CCCN2C(=O)[C@H](CC(C)(C)C)NC(=O)[C@H](CO)NC(=O)[C@H](CCCNC(=N)N)NC(=O)[C@H](CO)NC1=O) [Example 485: ((N-Me)G)-IC+SRS-((tBu)A)-PPI-(Pen)+IP-(PEG3(16atoms))-OH] | 36 | 32
[Piperidin‑4‑ylacetic acid]ICSRS[tBuAla]PPICIPD-OH (disulfide 3-11) [Example 475: (Piperidin-4-ylacetic acid)-IC+SRS-((tBu)A)-PPIC+IPD-OH] | 250 | 25
[Sar]ICSRSLP[Oic]I[Pen]IPD[PEG3]-OH (disulfide 3-11; N-terminus assumed; SMILES CC[C@H](C)[C@H](NC(=O)CNC)C(=O)N[C@H]1CSSC(C)(C)[C@@H](C(=O)N[C@H](C(=O)N2CCC[C@H]2C(=O)N[C@@H](CC(=O)O)C(=O)NCCOCCOCCOCCC(=O)O)[C@@H](C)CC)NC(=O)[C@H]([C@@H](C)CC)NC(=O)[C@@H]2C[C@@H]3CCCC[C@@H]3N2C(=O)[C@@H]2CCCN2C(=O)[C@H](CC(C)C)NC(=O)[C@H](CO)NC(=O)[C@H](CCCNC(=N)N)NC(=O)[C@H](CO)NC1=O) [Example 484: ((N-Me)G)-IC+SRSLP-(Oic)-I-(Pen)+IPD-(PEG2(13 atoms))-OH] | 63 | 88
[Sar]ICSRS[tBuAla]PPI[Pen]IP[Phe(3-COOH)]-OH (disulfide 3-11; N-terminus assumed; SMILES CC[C@H](C)[C@H](NC(=O)CNC)C(=O)N[C@H]1CSSC(C)(C)[C@@H](C(=O)N[C@H](C(=O)N2CCC[C@H]2C(=O)N[C@@H](Cc2cccc(C(=O)O)c2)C(=O)O)[C@@H](C)CC)NC(=O)[C@H]([C@@H](C)CC)NC(=O)[C@@H]2CCCN2C(=O)[C@@H]2CCCN2C(=O)[C@H](CC(C)(C)C)NC(=O)[C@H](CO)NC(=O)[C@H](CCCNC(=N)N)NC(=O)[C@H](CO)NC1=O) [Example 482: ((N-Me)G)-IC+SRS-((tBu)A)-PPI-(Pen)+IP-((3-Carboxy)F)-OH] | 18 | 33
[dA]ICSRSLP[Oic]I[Pen]IP[NHCH2(1,3-C6H4)CH2CO]-OH (disulfide 3-11; N-terminus assumed; SMILES CC[C@H](C)[C@H](NC(=O)[C@@H](C)N)C(=O)N[C@H]1CSSC(C)(C)[C@@H](C(=O)N[C@H](C(=O)N2CCC[C@H]2C(=O)NCc2cccc(CC(=O)O)c2)[C@@H](C)CC)NC(=O)[C@H]([C@@H](C)CC)NC(=O)[C@@H]2C[C@@H]3CCCC[C@@H]3N2C(=O)[C@@H]2CCCN2C(=O)[C@H](CC(C)C)NC(=O)[C@H](CO)NC(=O)[C@H](CCCNC(=N)N)NC(=O)[C@H](CO)NC1=O) [Example 478: aIC+SRSLP-(Oic)-I-(Pen)-+IP-(3-Aminomethylphenylacetic acid)-OH] | 68 | 49

Continued, values first:

rat MASP1 IC50 [1] [nM] | rat MASP2 IC50 [2] [nM] | Binder
34 | 50 | [Sar]ICSRSLP[Oic]I[Pen]IP[Phe(3-COOH)]-OH (disulfide 3-11; N-terminus assumed; SMILES CC[C@H](C)[C@H](NC(=O)CNC)C(=O)N[C@H]1CSSC(C)(C)[C@@H](C(=O)N[C@H](C(=O)N2CCC[C@H]2C(=O)N[C@@H](Cc2cccc(C(=O)O)c2)C(=O)O)[C@@H](C)CC)NC(=O)[C@H]([C@@H](C)CC)NC(=O)[C@@H]2C[C@@H]3CCCC[C@@H]3N2C(=O)[C@@H]2CCCN2C(=O)[C@H](CC(C)C)NC(=O)[C@H](CO)NC(=O)[C@H](CCCNC(=N)N)NC(=O)[C@H](CO)NC1=O) [Example 483: ((N-Me)G)-IC+SRSLP-(Oic)-I-(Pen)+IP-((3-Carboxy)F)-OH]
100 | 49 | [Sar]ICSRSLP[Oic]I[Pen]IP[PEG6]-OH (disulfide 3-11; N-terminus assumed; SMILES CC[C@H](C)[C@H](NC(=O)CNC)C(=O)N[C@H]1CSSC(C)(C)[C@@H](C(=O)N[C@H](C(=O)N2CCC[C@H]2C(=O)NCCOCCOCCOCCOCCOCCOCCC(=O)O)[C@@H](C)CC)NC(=O)[C@H]([C@@H](C)CC)NC(=O)[C@@H]2C[C@@H]3CCCC[C@@H]3N2C(=O)[C@@H]2CCCN2C(=O)[C@H](CC(C)C)NC(=O)[C@H](CO)NC(=O)[C@H](CCCNC(=N)N)NC(=O)[C@H](CO)NC1=O) [Example 472: ((N-Me)G)-IC+SRSLP-(Oic)-I-(Pen)+IP-(PEG5(22 atoms))-OH]
87 | 26 | [Sar]ICSRSLP[Oic]I[Pen]I[(S)‑4‑Piperazine‑2‑carboxylic acid]-OH (disulfide 3-11) [Example 474: ((N-Me))-GIC+SRSLP-(Oic)-I-(Pen)+I-((S)-4-Piperazine-2-carboxylic acid)-OH]
53 | 61 | [Sar]ICSRSLP[Oic]I[Pen]IP[4‑Aminomethylphenylacetic acid]-OH (disulfide 3-11; N-terminus assumed; SMILES CC[C@H](C)[C@H](NC(=O)CNC)C(=O)N[C@H]1CSSC(C)(C)[C@@H](C(=O)N[C@H](C(=O)N2CCC[C@H]2C(=O)NCc2ccc(CC(=O)O)cc2)[C@@H](C)CC)NC(=O)[C@H]([C@@H](C)CC)NC(=O)[C@@H]2C[C@@H]3CCCC[C@@H]3N2C(=O)[C@@H]2CCCN2C(=O)[C@H](CC(C)C)NC(=O)[C@H](CO)NC(=O)[C@H](CCCNC(=N)N)NC(=O)[C@H](CO)NC1=O) [Example 476: ((N-Me)G)-IC+SRSLP-(Oic)-I-(Pen)+IP-(4-Aminomethylphenylacetic acid)-OH]
154 | 123 | [Sar]ICSRSLP[Oic]I[Pen]IP[NHCH2(1,3-C6H4)CH2CO]-OH (disulfide 3-11; N-terminus assumed; SMILES CC[C@H](C)[C@H](NC(=O)CNC)C(=O)N[C@H]1CSSC(C)(C)[C@@H](C(=O)N[C@H](C(=O)N2CCC[C@H]2C(=O)NCc2cccc(CC(=O)O)c2)[C@@H](C)CC)NC(=O)[C@H]([C@@H](C)CC)NC(=O)[C@@H]2C[C@@H]3CCCC[C@@H]3N2C(=O)[C@@H]2CCCN2C(=O)[C@H](CC(C)C)NC(=O)[C@H](CO)NC(=O)[C@H](CCCNC(=N)N)NC(=O)[C@H](CO)NC1=O) [Example 477: ((N-Me)G)-IC+SRSLP-(Oic)-I-(Pen)+IP-(3-Aminomethylphenylacetic acid)-OH]
24 | 41 | XICSRS[tBuAla]PPI[Pen]IPD-OH (disulfide 3-11; not fully specified (residue 1); printed as (beta-P)-IC + SRS-((tBu)A)-PPI-(Pen) + IPD-OH) [Example 480: (beta-P)-IC+SRS-((tBu)A)-PPI-(Pen)+IPD-OH]
